Laboratory results taken from patent US20240254182A1 (PROVINCIAL HEALTH SERVICES AUTHORITY, published 2024).

T1: combination design 402 G-CSFR(Ig-CRH)E with N-terminal hexahistidine tag (human, UniProt Q99062 25-331)
T1 chain: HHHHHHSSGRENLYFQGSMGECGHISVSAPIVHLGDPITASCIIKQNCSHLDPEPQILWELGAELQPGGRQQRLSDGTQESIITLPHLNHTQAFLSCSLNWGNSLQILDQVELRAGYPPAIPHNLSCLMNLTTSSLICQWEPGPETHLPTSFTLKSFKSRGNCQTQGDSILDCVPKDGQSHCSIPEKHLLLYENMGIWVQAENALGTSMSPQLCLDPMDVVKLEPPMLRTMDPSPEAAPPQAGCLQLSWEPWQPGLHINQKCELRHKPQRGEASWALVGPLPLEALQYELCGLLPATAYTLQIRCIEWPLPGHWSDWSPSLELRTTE

T2: combination design 401 G-CSFR(Ig-CRH)E with N-terminal hexahistidine tag (human, UniProt Q99062 25-331)
T2 chain: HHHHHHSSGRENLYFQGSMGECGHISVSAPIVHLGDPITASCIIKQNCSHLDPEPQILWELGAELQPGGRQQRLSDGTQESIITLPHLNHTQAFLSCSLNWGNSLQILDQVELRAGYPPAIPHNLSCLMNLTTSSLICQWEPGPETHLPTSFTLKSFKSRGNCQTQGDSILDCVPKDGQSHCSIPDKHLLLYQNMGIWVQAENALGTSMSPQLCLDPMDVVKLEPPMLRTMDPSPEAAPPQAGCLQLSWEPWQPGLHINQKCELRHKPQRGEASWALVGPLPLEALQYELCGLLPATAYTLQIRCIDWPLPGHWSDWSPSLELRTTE

T3: site II design 30 G-CSFR(CRH)E with N-terminal hexahistidine tag (human, UniProt Q99062 120-331)
T3 construct: also called design #30 G-CSFRE
T3 chain: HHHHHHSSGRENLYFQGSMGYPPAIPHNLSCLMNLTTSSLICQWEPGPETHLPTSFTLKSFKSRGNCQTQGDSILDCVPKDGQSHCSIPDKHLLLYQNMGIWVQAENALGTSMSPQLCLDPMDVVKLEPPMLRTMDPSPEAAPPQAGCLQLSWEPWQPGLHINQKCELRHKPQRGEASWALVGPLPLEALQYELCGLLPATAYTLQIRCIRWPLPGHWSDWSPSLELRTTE

T4: site II design 35 G-CSFR(CRH)E with N-terminal hexahistidine tag (human)
T4 construct: also called design #35 G-CSFRE
T4 chain: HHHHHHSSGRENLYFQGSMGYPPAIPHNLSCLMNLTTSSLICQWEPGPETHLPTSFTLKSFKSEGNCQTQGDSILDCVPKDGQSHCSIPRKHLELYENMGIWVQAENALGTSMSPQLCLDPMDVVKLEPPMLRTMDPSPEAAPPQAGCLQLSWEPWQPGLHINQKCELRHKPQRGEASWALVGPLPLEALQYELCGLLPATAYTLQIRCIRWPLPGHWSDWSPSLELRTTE

T5: site II design 15 G-CSFR(CRH)E with N-terminal hexahistidine tag (human)
T5 construct: also called design #15 G-CSFRE
T5 chain: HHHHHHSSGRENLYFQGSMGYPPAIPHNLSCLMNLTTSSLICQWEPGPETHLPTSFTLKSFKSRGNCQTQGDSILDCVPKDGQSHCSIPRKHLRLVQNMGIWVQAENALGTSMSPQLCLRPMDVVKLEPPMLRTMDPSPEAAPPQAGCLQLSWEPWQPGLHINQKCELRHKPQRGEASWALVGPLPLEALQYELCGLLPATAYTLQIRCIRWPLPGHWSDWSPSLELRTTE

T6: site II design 34 G-CSFR(CRH)E with N-terminal hexahistidine tag (human, UniProt Q99062 120-331)
T6 construct: also called design #34 G-CSFRE
T6 chain: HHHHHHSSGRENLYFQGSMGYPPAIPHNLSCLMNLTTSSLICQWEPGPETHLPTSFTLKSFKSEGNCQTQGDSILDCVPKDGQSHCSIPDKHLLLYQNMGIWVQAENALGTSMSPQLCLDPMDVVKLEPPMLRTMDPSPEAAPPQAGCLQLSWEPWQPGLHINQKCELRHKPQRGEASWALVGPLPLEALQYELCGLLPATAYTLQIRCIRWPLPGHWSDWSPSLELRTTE

T7: WT G-CSFR(Ig-CRH), purified, tag cleaved (human, UniProt Q99062 26-331)
T7 construct: also called G-CSFRWT; wild type G-CSFR(Ig-CRH)
T7 chain: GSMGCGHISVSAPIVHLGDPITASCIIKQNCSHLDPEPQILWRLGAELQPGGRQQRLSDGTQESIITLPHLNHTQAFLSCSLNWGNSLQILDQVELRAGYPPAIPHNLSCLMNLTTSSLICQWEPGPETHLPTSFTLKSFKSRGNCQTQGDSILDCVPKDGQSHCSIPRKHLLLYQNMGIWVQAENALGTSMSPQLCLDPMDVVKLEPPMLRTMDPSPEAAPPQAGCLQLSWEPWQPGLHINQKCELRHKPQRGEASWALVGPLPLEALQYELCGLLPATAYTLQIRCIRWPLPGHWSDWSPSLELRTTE

T8: design 300 G-CSFR(Ig-CRH)E, tag cleaved (human, UniProt Q99062 26-331)
T8 chain: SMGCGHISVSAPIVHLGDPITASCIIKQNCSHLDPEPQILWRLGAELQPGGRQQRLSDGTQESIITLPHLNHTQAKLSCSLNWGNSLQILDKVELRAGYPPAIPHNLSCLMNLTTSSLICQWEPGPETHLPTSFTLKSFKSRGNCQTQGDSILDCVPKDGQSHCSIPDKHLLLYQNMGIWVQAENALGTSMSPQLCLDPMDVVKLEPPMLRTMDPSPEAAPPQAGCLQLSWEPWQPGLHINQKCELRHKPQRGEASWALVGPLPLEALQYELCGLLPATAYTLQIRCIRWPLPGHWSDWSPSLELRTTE

T9: design 303 G-CSFR(Ig-CRH)E, tag cleaved (human, UniProt Q99062 26-331)
T9 chain: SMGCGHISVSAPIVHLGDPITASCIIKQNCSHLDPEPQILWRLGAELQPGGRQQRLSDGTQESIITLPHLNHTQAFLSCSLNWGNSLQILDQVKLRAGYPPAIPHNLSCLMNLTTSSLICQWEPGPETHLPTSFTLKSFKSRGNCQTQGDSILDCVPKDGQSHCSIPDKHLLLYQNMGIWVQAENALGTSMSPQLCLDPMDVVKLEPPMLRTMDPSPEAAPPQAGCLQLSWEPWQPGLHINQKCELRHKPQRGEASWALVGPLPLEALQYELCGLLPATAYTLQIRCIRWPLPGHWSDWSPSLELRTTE

B1: WT G-CSF with C-terminal Twin Strep tag (ligand)
chain: not shown
notes: construct of the insect-cell co-expression pulldown; also called G-CSFWT
B2: design 300 G-CSFE, tag cleaved (ligand)
chain: TPLGPASSLPQSFLLKCLEQVRKIQGDGAALQEKLCATYDDCHPEELVLLGHSLGIPWAPLSSCPSQALQLAGCLSQLHSGLFLYQGLLQALEGISPELGPTLDTLQKDVARFATTIWQQMEELGMAPALQPTQGAMPAFASAFQRRAGGVLVASHLQSFLEVSYRVLRHLAQAAAENLYFQ
notes: also called design 300 G-CSFE mutant
B3: design 303 G-CSFE, tag cleaved (ligand)
chain: TPLGPASSLPQSFLLKCLEQVRKIQGDGAALQEKLCATYKLCHPEELVLLGHSLGIPWAPLSSCPSQALQLAGCLSQLHSGLFLYQGLLQALEGISPELGPTLDTLQKDVARFATTIWQQMEELGMAPALQPTQGAMPAFASAFQREAGGVLVASHLQSFLEVSYRVLRHLAQAAAENLYFQ
notes: also called design 303 G-CSFE mutant

Columns and labels:
[1] = molecular target: T1, combination design 402 G-CSFR(Ig-CRH)E …; assay: co-expression in insect cells, pulldown via the Twin Strep tag on G-CSF, reducing SDS-PAGE; G-CSFR(Ig-CRH) format
Experimental: (§1) The P2 viral stocks were tested for protein expression in small-scale. P2 virus was used to co-infect G-CSFE mutants with their corresponding G-CSFRE mutant in Trichoplusia ni (Tni) cells in 12-well plates. Separate co-infections for each design mutant were performed using the P2 stocks of G-CSFWT and GCSFR(CRH)WT, as well as for G-CSFE mutants alone. For each reaction, 2 mL of healthy log-phase Tni at 2×10⁶ cells ml⁻¹ was inoculated with 20 μl P2 virus. Plates were incubated at 27° C. for approximately 70 h with shaking at 135 rpm. […] Briefly, to each 1.8 mL reaction supernatant 0.2 mL 10× HEPES Buffered Saline (HBS: 20 mM HEPES pH8, 150 mM NaCl) was added to 1×, 20 μl bed volume (b.v) of purification beads added and reactions incubated for 30 minutes with end-over-end mixing at 24° C. An additional 20 μl b.v of purification beads was added followed by a second 30 minute incubation. Beads were pelleted by centrifugation at 2200 rpm for 3 minutes, supernatant was removed and the beads washed with 1× HBS buffer.
(§2) The co-expression assay with pulldown through the cytokine TST tag was performed as described above in Example 2, with the difference that the receptor constructs contained the Ig and CRH domains (residues 2-308, Table 1) referred to as G-CSFR(Ig-CRH).

[2] = molecular target: T2, combination design 401 G-CSFR(Ig-CRH)E …; assay: as above
Experimental: as §1, §2

[3] = molecular target: T3, site II design 30 G-CSFR(CRH)E with …; assay: WT G-CSF co-expressed with variant G-CSFR(CRH) in insect cells, pulldown via the Twin Strep tag on G-CSF, reducing SDS-PAGE
Experimental: as §1

[4] = molecular target: T4, site II design 35 G-CSFR(CRH)E with …; assay: as above
Experimental: as §1

[5] = molecular target: T5, site II design 15 G-CSFR(CRH)E with …; assay: as above
Experimental: as §1

[6] = molecular target: T6, site II design 34 G-CSFR(CRH)E with …; assay: as above
Experimental: as §1

[7] = molecular target: T7, WT G-CSFR(Ig-CRH), purified, tag cleaved; assay: SPR (Biacore T200), WT receptor amine-coupled, cytokine injected
Experimental: (§3) The SPR binding assays were carried out on a Biacore T200 instrument (GE Healthcare, Mississauga, ON, Canada) with PBS-T (PBS+0.05% (v/v) Tween 20) running buffer at a temperature of 25° C. CM5 Series S sensor chip, Biacore amine coupling kit (NHS, EDC and 1 M ethanolamine), and 10 mM sodium acetate buffers were all purchased from GE Healthcare. PBS running buffer with 0.05% Tween20 (PBS-T) was purchased from Teknova Inc. (Hollister, CA). Designs were assessed in three different immobilization orientations.
To assess binding affinity of G-CSFE to G-CSFRWT, recombinant G-CSFRWT purified as described in Example 5 was captured as described above in this Example. Using single-cycle kinetics, six concentrations of a two-fold dilution series of each G-CSFE mutant starting at […] with a blank buffer control were sequentially injected as described above. The same sample titration was also performed on a reference cell with no variants captured. The G-CSFRWT surface was regenerated as described above.
(§4) Double-referenced sensorgrams from duplicate or triplicate repeat injections were analyzed using Biacore™ T200 Evaluation Software v3.0 and fit to the 1:1 Langmuir binding model.

[8] = molecular target: T8, design 300 G-CSFR(Ig-CRH)E, tag cleaved; assay: SPR, G-CSFRE amine-coupled, G-CSFE injected, single-cycle kinetics
Experimental: as §3
(§5) To determine binding affinity of G-CSFE to G-CSFRE the G-CSFRE mutant was captured by standard amine coupling as described by the manufacturer (GE LifeSciences). Briefly, immediately after EDC/NHS activation, a 5 μg/mL solution of G-CSFRE in 10 mM NaOAc, pH 5.0, was injected at a flow rate of 5 μL/min until a receptor density of ˜700-900 RU was reached. The remaining active groups were quenched by a 420 s injection of 1 M ethanolamine hydrochloride-NaOH pH 8.5 at 10 μL/min. Using single-cycle kinetics, six concentrations of a two-fold dilution series of the corresponding G-CSFE mutant starting at 200 nM with a blank buffer control were sequentially injected at 25 μL/min for 300 s with a 1800 s dissociation phase, resulting in a set of sensorgrams with a buffer blank reference. The same sample titration was also performed on a reference cell with no variants captured. The chip was regenerated to prepare for the next injection cycle by one pulse of 10 mM glycine/HCl, pH 2.0, for 30 s at 30 μL/min.
as §4

[9] = molecular target: T9, design 303 G-CSFR(Ig-CRH)E, tag cleaved; assay: SPR, G-CSFRE amine-coupled, G-CSFE injected; steady state derived affinity constant
Experimental: as §5, §4
Kinetic-derived affinity constants (KD) where obtained by fitting the association and dissociation phases of the curves. The KD of WT G-CSF for WT G-CSFR(Ig-CRH) ranged between 1.8-2.5E-9. For the cases in which the kinetic parameters could not be fit an attempt was made to derive a steady state affinity constant. In those cases, the KD fold change was calculated from the steady state derived KD for the WT G-CSF:WT G-CSFR(Ig-CRH) pair and is indicated in Table 7.

Binder | binding result [1] | binding result [2] | binding result [3] | binding result [4] | binding result [5] | binding result [6] | binding result [7] | KD fold change (against WT:WT) [8] [fold] | KD fold change (against WT:WT) [9] [fold]
B1 | no binding | no binding | no binding | no binding | no binding | no binding |  |  | 
B2 |  |  |  |  |  |  | no binding | 194 | 
B3 |  |  |  |  |  |  | no binding |  | 2.2
